Measurements: paper PMC12554172 (2025)

B1: FLAG-tagged FBXO44 FBA domain (FBXO44^FBA) [human] / RGS2^5–16 peptide (RGS2 degron, Met^5–Met^16) [not stated] (parent complex)
chain 1: FYFLRSLHRNLLHNPCAEEGFEFWSLDVNGGDEWKVEDLSRDQRKEFPNDQVKKYFVTSYYTCLKSQVVDLKAEGYWEELMDTTRPDIEVKDWFAARPDCGSKYQLCVQLLSSAHAPLGTFQPDPATIQQKSDAKWREVSHTFSNYPPGVRYIWFQHGGVDTHYWAGWYGPRVTNSSITIGP
chain 2: MFLAVQHDCRPM

Variants of: B1
Assay: peptide microarray (PEPperPRINT), α-FLAG fluorescence; three independent experiments with three technical replicates each; parent: 100; read off a plot

Row | percent of parent | Variant
1 | ~55 % Parent | chain 2 MFLAVQHDYRPM [chain 2 C9Y]
2 | ~15 % Parent | chain 2 MFLAVQHDERPM [chain 2 C9E]
3 | ~28 % Parent | chain 2 MFLAVQHDDRPM [chain 2 C9D]
4 | ~25 % Parent | chain 2 MFLAVQHDARPM [chain 2 C9A]
5 | ~13 % Parent | chain 2 MFLAVQHDMRPM [chain 2 C9M]
6 | ~20 % Parent | chain 2 MFLAVQHDFRPM [chain 2 C9F]
7 | ~13 % Parent | chain 2 MFLAVQHDGRPM [chain 2 C9G]
8 | ~13 % Parent | chain 2 MFLAVQHDVRPM [chain 2 C9V]
9 | ~15 % Parent | chain 2 MFLAVQHDPRPM [chain 2 C9P]
10 | ~47 % Parent | chain 2 MFLAVQHDKRPM [chain 2 C9K]
11 | ~17 % Parent | chain 2 MFLAVQHDHRPM [chain 2 C9H]
12 | ~13 % Parent | chain 2 MFLAVQHDLRPM [chain 2 C9L]
13 | ~13 % Parent | chain 2 MFLAVQHDSRPM [chain 2 C9S]
14 | ~25 % Parent | chain 2 MFLAVQHDQRPM [chain 2 C9Q]
15 | ~15 % Parent | chain 2 MFLAVQHDIRPM [chain 2 C9I]
16 | ~15 % Parent | chain 2 MFLAVQHDTRPM [chain 2 C9T]
17 | ~15 % Parent | chain 2 MFLAVQHDNRPM [chain 2 C9N]
18 | ~50 % Parent | chain 2 MFLAVQHDWRPM [chain 2 C9W]
19 | ~130 % Parent | chain 2 MFLAVQHDRRPM [chain 2 C9R]

Variants of: B1
Assay: as above
Remark: another data set of the same source

Row | percent of parent | Variant
20 | ~130 % Parent Peptide | chain 2 MFLAVQHDRRPM [chain 2 C9R]
21 | ~150 % Parent Peptide | chain 2 MFLAVQHDCRKM [chain 2 P11K]
22 | ~260 % Parent Peptide | chain 2 MFLAVQHDCRRM [chain 2 P11R]
23 | ~140 % Parent Peptide | chain 2 MFLAVQRDCRPM [chain 2 H7R]
24 | ~200 % Parent Peptide | chain 2 MFLAVQHDCRPR [chain 2 M12R]
25 | ~220 % Parent Peptide | chain 2 MFLAVQHKCRPM [chain 2 D8K]
26 | ~280 % Parent Peptide | chain 2 MFLAVQHRCRPM [chain 2 D8R]

Variants of: B1
Assay: as above
Remark: another data set of the same source

Row | percent of parent | Variant
27 | ~80 % Parent | chain 2 MFLAVQHDCPPM [chain 2 R10P]
28 | ~75 % Parent | chain 2 MFLAVQHDCHPM [chain 2 R10H]
29 | ~110 % Parent | chain 2 MFLAVQHDCCPM [chain 2 R10C]
30 | ~80 % Parent | chain 2 MFLAVQHDCQPM [chain 2 R10Q]
31 | ~85 % Parent | chain 2 MFLAVQHDCVPM [chain 2 R10V]
32 | ~78 % Parent | chain 2 MFLAVQHDCGPM [chain 2 R10G]
33 | ~95 % Parent | chain 2 MFLAVQHDCFPM [chain 2 R10F]
34 | ~110 % Parent | chain 2 MFLAVQHDCEPM [chain 2 R10E]
35 | ~72 % Parent | chain 2 MFLAVQHDCAPM [chain 2 R10A]
36 | ~80 % Parent | chain 2 MFLAVQHDCKPM [chain 2 R10K]
37 | ~82 % Parent | chain 2 MFLAVQHDCLPM [chain 2 R10L]
38 | ~85 % Parent | chain 2 MFLAVQHDCSPM [chain 2 R10S]
39 | ~82 % Parent | chain 2 MFLAVQHDCNPM [chain 2 R10N]
40 | ~120 % Parent | chain 2 MFLAVQHDCYPM [chain 2 R10Y]
41 | ~80 % Parent | chain 2 MFLAVQHDCTPM [chain 2 R10T]
42 | ~88 % Parent | chain 2 MFLAVQHDCMPM [chain 2 R10M]
43 | ~110 % Parent | chain 2 MFLAVQHDCDPM [chain 2 R10D]
44 | ~78 % Parent | chain 2 MFLAVQHDCIPM [chain 2 R10I]
45 | ~120 % Parent | chain 2 MFLAVQHDCWPM [chain 2 R10W]

Variants of: B1
Assay: as above
Remark: another data set of the same source

Row | percent of parent | Variant
46 | ~90 % Parent | chain 2 MFLAVQHDCRQM [chain 2 P11Q]
47 | ~85 % Parent | chain 2 MFLAVQHDCRTM [chain 2 P11T]
48 | ~82 % Parent | chain 2 MFLAVQHDCRLM [chain 2 P11L]
49 | ~120 % Parent | chain 2 MFLAVQHDCRCM [chain 2 P11C]
50 | ~150 % Parent | chain 2 MFLAVQHDCRKM [chain 2 P11K]
51 | ~85 % Parent | chain 2 MFLAVQHDCRVM [chain 2 P11V]
52 | ~88 % Parent | chain 2 MFLAVQHDCREM [chain 2 P11E]
53 | ~100 % Parent | chain 2 MFLAVQHDCRFM [chain 2 P11F]
54 | ~88 % Parent | chain 2 MFLAVQHDCRIM [chain 2 P11I]
55 | ~85 % Parent | chain 2 MFLAVQHDCRHM [chain 2 P11H]
56 | ~260 % Parent | chain 2 MFLAVQHDCRRM [chain 2 P11R]
57 | ~100 % Parent | chain 2 MFLAVQHDCRMM [chain 2 P11M]
58 | ~85 % Parent | chain 2 MFLAVQHDCRNM [chain 2 P11N]
59 | ~110 % Parent | chain 2 MFLAVQHDCRWM [chain 2 P11W]
60 | ~100 % Parent | chain 2 MFLAVQHDCRSM [chain 2 P11S]
61 | ~130 % Parent | chain 2 MFLAVQHDCRDM [chain 2 P11D]
62 | ~68 % Parent | chain 2 MFLAVQHDCRGM [chain 2 P11G]
63 | ~110 % Parent | chain 2 MFLAVQHDCRYM [chain 2 P11Y]
64 | ~72 % Parent | chain 2 MFLAVQHDCRAM [chain 2 P11A]

Variants of: B1
Assay: as above
Remark: another data set of the same source

Row | percent of parent | Variant
65 | ~100 % Parent | chain 2 MFLAVQLDCRPM [chain 2 H7L]
66 | ~100 % Parent | chain 2 MFLAVQIDCRPM [chain 2 H7I]
67 | ~100 % Parent | chain 2 MFLAVQSDCRPM [chain 2 H7S]
68 | ~110 % Parent | chain 2 MFLAVQQDCRPM [chain 2 H7Q]
69 | ~100 % Parent | chain 2 MFLAVQFDCRPM [chain 2 H7F]
70 | ~95 % Parent | chain 2 MFLAVQTDCRPM [chain 2 H7T]
71 | ~95 % Parent | chain 2 MFLAVQMDCRPM [chain 2 H7M]
72 | ~120 % Parent | chain 2 MFLAVQKDCRPM [chain 2 H7K]
73 | ~100 % Parent | chain 2 MFLAVQDDCRPM [chain 2 H7D]
74 | ~100 % Parent | chain 2 MFLAVQVDCRPM [chain 2 H7V]
75 | ~110 % Parent | chain 2 MFLAVQYDCRPM [chain 2 H7Y]
76 | ~110 % Parent | chain 2 MFLAVQWDCRPM [chain 2 H7W]
77 | ~95 % Parent | chain 2 MFLAVQEDCRPM [chain 2 H7E]
78 | ~140 % Parent | chain 2 MFLAVQRDCRPM [chain 2 H7R]
79 | ~100 % Parent | chain 2 MFLAVQNDCRPM [chain 2 H7N]
80 | ~110 % Parent | chain 2 MFLAVQPDCRPM [chain 2 H7P]
81 | ~95 % Parent | chain 2 MFLAVQADCRPM [chain 2 H7A]
82 | ~90 % Parent | chain 2 MFLAVQGDCRPM [chain 2 H7G]
83 | ~120 % Parent | chain 2 MFLAVQCDCRPM [chain 2 H7C]

Variants of: B1
Assay: as above
Remark: another data set of the same source

Row | percent of parent | Variant
84 | ~87 % Parent | chain 2 MFLAVQHDCRPN [chain 2 M12N]
85 | ~110 % Parent | chain 2 MFLAVQHDCRPW [chain 2 M12W]
86 | ~140 % Parent | chain 2 MFLAVQHDCRPK [chain 2 M12K]
87 | ~85 % Parent | chain 2 MFLAVQHDCRPT [chain 2 M12T]
88 | ~88 % Parent | chain 2 MFLAVQHDCRPQ [chain 2 M12Q]
89 | ~90 % Parent | chain 2 MFLAVQHDCRPH [chain 2 M12H]
90 | ~90 % Parent | chain 2 MFLAVQHDCRPP [chain 2 M12P]
91 | ~90 % Parent | chain 2 MFLAVQHDCRPL [chain 2 M12L]
92 | ~90 % Parent | chain 2 MFLAVQHDCRPV [chain 2 M12V]
93 | ~130 % Parent | chain 2 MFLAVQHDCRPD [chain 2 M12D]
94 | ~130 % Parent | chain 2 MFLAVQHDCRPC [chain 2 M12C]
95 | ~120 % Parent | chain 2 MFLAVQHDCRPY [chain 2 M12Y]
96 | ~85 % Parent | chain 2 MFLAVQHDCRPI [chain 2 M12I]
97 | ~200 % Parent | chain 2 MFLAVQHDCRPR [chain 2 M12R]
98 | ~67 % Parent | chain 2 MFLAVQHDCRPA [chain 2 M12A]
99 | ~92 % Parent | chain 2 MFLAVQHDCRPS [chain 2 M12S]
100 | ~100 % Parent | chain 2 MFLAVQHDCRPF [chain 2 M12F]
101 | ~110 % Parent | chain 2 MFLAVQHDCRPE [chain 2 M12E]
102 | ~72 % Parent | chain 2 MFLAVQHDCRPG [chain 2 M12G]

Variants of: B1
Assay: as above
Remark: another data set of the same source

Row | percent of parent | Variant
103 | ~130 % Parent | chain 2 MFLAVQHLCRPM [chain 2 D8L]
104 | ~130 % Parent | chain 2 MFLAVQHTCRPM [chain 2 D8T]
105 | ~130 % Parent | chain 2 MFLAVQHGCRPM [chain 2 D8G]
106 | ~140 % Parent | chain 2 MFLAVQHMCRPM [chain 2 D8M]
107 | ~140 % Parent | chain 2 MFLAVQHICRPM [chain 2 D8I]
108 | ~160 % Parent | chain 2 MFLAVQHSCRPM [chain 2 D8S]
109 | ~140 % Parent | chain 2 MFLAVQHCCRPM [chain 2 D8C]
110 | ~130 % Parent | chain 2 MFLAVQHYCRPM [chain 2 D8Y]
111 | ~220 % Parent | chain 2 MFLAVQHKCRPM [chain 2 D8K]
112 | ~130 % Parent | chain 2 MFLAVQHFCRPM [chain 2 D8F]
113 | ~150 % Parent | chain 2 MFLAVQHNCRPM [chain 2 D8N]
114 | ~130 % Parent | chain 2 MFLAVQHHCRPM [chain 2 D8H]
115 | ~160 % Parent | chain 2 MFLAVQHQCRPM [chain 2 D8Q]
116 | ~280 % Parent | chain 2 MFLAVQHRCRPM [chain 2 D8R]
117 | ~100 % Parent | chain 2 MFLAVQHECRPM [chain 2 D8E]
118 | ~160 % Parent | chain 2 MFLAVQHPCRPM [chain 2 D8P]
119 | ~140 % Parent | chain 2 MFLAVQHVCRPM [chain 2 D8V]
120 | ~120 % Parent | chain 2 MFLAVQHACRPM [chain 2 D8A]
121 | ~150 % Parent | chain 2 MFLAVQHWCRPM [chain 2 D8W]
